This passage reports stoichiometry N results from publication doi:10.1101/2024.03.27.587050.

The target of assay [1] is Chaetomium thermophilum NAT10 (CtNAT10), E.coli produced recombinant (Chaetomium thermophilum). In words: mass photometry.
Assay [2] deals with Chaetomium thermophilum NAT10 (CtNAT10), Sf9 produced recombinant (Chaetomium thermophilum). The experiment in a line: mass photometry.

In the case of “Chaetomium thermophilum NAT10 (CtNAT10), E.coli produced recombinant (enzyme)”, the stoichiometry N in assay [1] is 2. As to “Chaetomium thermophilum NAT10 (CtNAT10), Sf9 produced recombinant (enzyme)”, the stoichiometry N in assay [2] was determined as 2.

Broadly, the stoichiometry N is the number of molecules, sites or subunits per partner or assembly.
